This note sets out measurements from article PMC6962038 (Science Advances, 2020).

In assay [1] the target is wild-type human APJ (membrane preparation) (human, UniProt P35414). The assay can be described thus: cell-based or functional assay.
Assay [2] addresses APJ463 chimeric receptor reconstituted in nanodiscs (human, UniProt P35414, C325L | C326M). The assay can be described thus: SPR. On the technique in general: SPR reads the build-up and loss of mass on a sensor chip optically.

B1: single-domain antibody (sdAb) antagonist JN241 (VHH)
VHH: QVQLVESGGGSVQSGGSLTLSCAASGSTYSSHCMGWFRQAPGKEREGVALMTRSRGTSYADSVKGRFTISQDNTKNILYLQMNSLKPEDTAMYYCAAVPRAGIESGAYCKWNMKDSGSWGQGTLVTVSS
As for B1, in assay [1], the “IC50 of antagonism of the action of Apelin 13 on human APJ, cAMP assay” value is 5.9 nM. In assay [2], the Kd (usually a measure of binding affinity in units of concentration) is 0.083 nM.
